In article PMC9600955:

Molecular target: LapD2 purified in isolation (Streptococcus intermedius GC1825)
Assay: crystal structure; LapD2 at 10 mg/mL, hanging drop, 0.2 M lithium sulfate, 0.1 M Tris-HCl pH 8.0, 30% PEG 4000; SAD phasing, native data to 2.20 Å

In the case of “LapD2 purified in isolation (natural protein)”, the stoichiometry N is reported as 2.
